Results from paper PMC9332313, “Folding and Binding Mechanisms of the SH2 Domain from Crkl” (Biomolecules, 2022).
Square brackets hold non-standard residues; d marks the D form. Ends that are not written are not given here. * marks the point of attachment. pY = N[C@@H](Cc1ccc(OP(=O)(O)O)cc1)C(=O)O; Dansyl = CN(C)c1cccc2c(S(=O)(=O)*)cccc12

What was measured:
Conditions in all cases: both partners purified
[1] = target: T1, SH2 domain of Crkl protein (residues 1-111), H80A variant (UniProt P46109 1-111, H80A); assay: stopped-flow fluorescence kinetics (FRET); dansyl-Pax112-123 constant at 2 μM mixed with Crkl-SH2 2 to 10 μM (pseudo-first-order, kon); koff by displacement of the preincubated 2 µM complex with excess non-dansylated Pax112-123 (30 μM); 283 K; 50 mM TrisHCl pH 9.0, 0.5 M NaCl
T1 construct: Crkl adaptor protein, SH2 domain, residues 1-111, His80 replaced by alanine; Site-directed mutant of m1 (QuikChange); source: E. coli BL21 (DE3), purified (HisTrap nickel column, desalting); not shown: His tag, N-terminal, kept

[2] = target: T2, SH2 domain of Crkl protein (residues 1-111), H33A variant (UniProt P46109 1-111, H33A); assay: stopped-flow fluorescence kinetics (FRET); dansyl-Pax112-123 constant at 2 μM mixed with Crkl-SH2 2 to 10 μM (pseudo-first-order, kon); koff by displacement of the preincubated 2 µM complex with excess non-dansylated Pax112-123 (30 μM); 283 K; 50 mM sodium-acetate pH 5.5, 0.5 M NaCl
T2 construct: Crkl adaptor protein, SH2 domain, residues 1-111, His33 replaced by alanine; Site-directed mutant of m1 (QuikChange); source: E. coli BL21 (DE3), purified (HisTrap nickel column, desalting); not shown: His tag, N-terminal, kept

[3] = target: T1, SH2 domain of Crkl protein (residues …); assay: as above
[4] = target: T3, SH2 domain of Crkl protein (residues 1-111), wild type (UniProt P46109 1-111); assay: as above
T3 construct: Crkl adaptor protein, SH2 domain, residues 1-111; Subcloned in pET28b+; all experiments were done on the N-terminally His-tagged protein; also called Crkl-SH2; Crkl SH2 domain; source: E. coli BL21 (DE3), purified (HisTrap nickel column, desalting); not shown: His tag, N-terminal, kept

[5] = target: T4, SH2 domain of Crkl protein (residues 1-111), H91A variant (UniProt P46109 1-111, H91A); assay: as above
T4 construct: Crkl adaptor protein, SH2 domain, residues 1-111, His91 replaced by alanine; Site-directed mutant of m1 (QuikChange); source: E. coli BL21 (DE3), purified (HisTrap nickel column, desalting); not shown: His tag, N-terminal, kept

[6] = target: T4, SH2 domain of Crkl protein (residues …); assay: stopped-flow fluorescence kinetics (FRET); dansyl-Pax112-123 constant at 2 μM mixed with Crkl-SH2 2 to 10 μM (pseudo-first-order, kon); koff by displacement of the preincubated 2 µM complex with excess non-dansylated Pax112-123 (30 μM); 283 K; 50 mM TrisHCl pH 8.0, 0.5 M NaCl
[7] = target: T2, SH2 domain of Crkl protein (residues …); assay: stopped-flow fluorescence kinetics (FRET); dansyl-Pax112-123 constant at 2 μM mixed with Crkl-SH2 2 to 10 μM (pseudo-first-order, kon); koff by displacement of the preincubated 2 µM complex with excess non-dansylated Pax112-123 (30 μM); 283 K; 50 mM sodium-HEPES pH 7.5, 0.5 M NaCl
[8] = target: T1, SH2 domain of Crkl protein (residues …); assay: as above
[9] = target: T3, SH2 domain of Crkl protein (residues …); assay: as above
[10] = target: T4, SH2 domain of Crkl protein (residues …); assay: as above

T2 sequence (P46109 1-111 H33A): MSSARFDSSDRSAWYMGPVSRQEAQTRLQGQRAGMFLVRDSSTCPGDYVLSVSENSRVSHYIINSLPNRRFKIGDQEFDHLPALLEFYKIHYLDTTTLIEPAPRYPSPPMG
T1 sequence (P46109 1-111 H80A): as the sequence (P46109 1-111 H33A) above, with A33H, H80A counted along it
T3 sequence (P46109 1-111): as the sequence (P46109 1-111 H33A) above, with A33H counted along it
T4 sequence (P46109 1-111 H91A): as the sequence (P46109 1-111 H33A) above, with A33H, H91A counted along it

B1: dansylated Pax_(112–123) peptide (Dans-GEEEHV-pY-SFPNK) (peptide)
peptide: Dansyl-GEEEHV[pY]SFPNK
notes: The dansyl group is the FRET acceptor of Trp14 of the SH2 domain; source: synthetic peptide, bought: GenScript
Kd [1]: 2800 ± 300 nM
koff [1]: 34 ± 2.3 s⁻¹
kon [1]: 1.2e+07 ± 900000 M⁻¹ s⁻¹
Kd [2]: 3400 ± 400 nM
koff [2]: 22.8 ± 2.2 s⁻¹
kon [2]: 6.7e+06 ± 400000 M⁻¹ s⁻¹
Kd [3]: 2500 ± 500 nM
koff [3]: 20 ± 3.7 s⁻¹
kon [3]: 7.9e+06 ± 900000 M⁻¹ s⁻¹
Kd [4]: 3000 ± 300 nM
koff [4]: 25.6 ± 0.4 s⁻¹
kon [4]: 8.4e+06 ± 700000 M⁻¹ s⁻¹
Kd [5]: 4300 ± 200 nM
koff [5]: 24.1 ± 0.4 s⁻¹
kon [5]: 5.6e+06 ± 300000 M⁻¹ s⁻¹
Kd [6]: 2900 ± 100 nM
koff [6]: 39 ± 0.7 s⁻¹
kon [6]: 1.32e+07 ± 500000 M⁻¹ s⁻¹
Kd [7]: 2300 ± 500 nM
koff [7]: 24.6 ± 3.2 s⁻¹
kon [7]: 1.08e+07 ± 1.9e+06 M⁻¹ s⁻¹
Kd [8]: 2000 ± 200 nM
koff [8]: 27.8 ± 2.3 s⁻¹
kon [8]: 1.36e+07 ± 1.1e+06 M⁻¹ s⁻¹
Kd [9]: 2800 ± 400 nM
koff [9]: 28.6 ± 0.5 s⁻¹
kon [9]: 1.04e+07 ± 1.4e+06 M⁻¹ s⁻¹
Kd [10]: 2600 ± 100 nM
koff [10]: 25.9 ± 0.3 s⁻¹
kon [10]: 1e+07 ± 500000 M⁻¹ s⁻¹
